The nature of this series: Protein caging and uncaging, particle counting of TEM images. The series is classed as physicochemical. To be noted: low power light irradiation for 60 seconds (302 nm). On the procedure:
BSA was directly caged through the reaction of our crosslinker with the surface amino groups on the protein. Streptavidin was indirectly caged by attaching biotin-amine to the nanocage cavity and then subsequently mixing with the protein. […] None were seen tethered to the cage exterior.
TEM samples were prepared by placing 3 μL of sample solution onto a carbon coated grid (FCF400-Cu, Electron Microscopy Sciences) which was previously charged using a plasma etcher (30 seconds of irradiation). After 2 minutes, the solution was wicked away from the grid with filter paper (Whatman 50 hardened). The grid was immediately treated with stain for 30 seconds and excess solution was wicked away. The remaining solution on the grid was evaporated at room temperate prior to imaging. TEM images were acquired with an FEI Tecnai Spirit Transmission Electron Microscope operated at 80 kV. Saturated uranyl formate (in ddH2O prepared freshly before usage) was used for protein caging experiments and 2% uranyl acetate (diluted with ddH2O from 4%, Electron Microscopy Sciences) was used for all other samples.
Protein containing nanocages were created following the general cavity functionalization protocol. 5 equivalents per oligo handle were used. […] The extent of uncaging was analyzed using particle counting of the TEM images. The entirety of each TEM image was analyzed to avoid bias.

For the substance streptavidin, the “nanocages containing protein after light irradiation” value was 9% and the uncaging efficiency turned out to be 87%.

The record behind these values is patent publication US10617759B2, “Light-stimulated release of cargo from oligonucleotides” (Trustees of Boston University, priority 2016, dated 2020).
